Experimental data published in the supplement of paper PMC9112550, “Optimization of the antimicrobial peptide Bac7 by deep mutational scanning” (BMC Biology, 2022).

System: Escherichia coli TOP10
Experiment: shrunken log2 fold change of peptide-encoding DNA abundance (4.5 h post-induction vs induction); higher = less antimicrobial activity (less host growth inhibition)
Conditions: time post-induction: 4.5 h; library: site-saturation at positions 5, 18, 19, 20
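Note: peptides expressed intracellularly from a pBAD plasmid library in pooled LB shake-flask culture, induced with 0.3% L-arabinose, DNA abundance read by NGS, three biological replicates, DESeq2 with apeglm shrinkage.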

Sequence | shrunken log2 fold change
RRIRNRPPRLPRPRPRPHPCPRP | 0.231
RRIRNRPPRLPRPRPRPHPSPRP | -0.25
RRIRNRPPRLPRPRPRPHPYPRP | -0.654
RRIRNRPPRLPRPRPRPHQKPRP | 0.0226
RRIRNRPPRLPRPRPRPHRMPRP | -0.0233
RRIRNRPPRLPRPRPRPHSPPRP | -0.415
RRIRNRPPRLPRPRPRPHVKPRP | -0.17
RRIRNRPPRLPRPRPRPHWGPRP | -0.0266
RRIRNRPPRLPRPRPRPHWWPRP | 0.127
RRIRNRPPRLPRPRPRPHYHPRP | -0.142
RRIRNRPPRLPRPRPRPHYSPRP | -0.363
RRIRNRPPRLPRPRPRPIAPPRP | 0.0153
RRIRNRPPRLPRPRPRPIAYPRP | -0.0604
RRIRNRPPRLPRPRPRPICDPRP | -0.119
RRIRNRPPRLPRPRPRPICFPRP | -0.217
RRIRNRPPRLPRPRPRPICGPRP | -0.253
RRIRNRPPRLPRPRPRPICVPRP | 0.111
RRIRNRPPRLPRPRPRPIFQPRP | -0.0287
RRIRNRPPRLPRPRPRPIGQPRP | -0.0958
RRIRNRPPRLPRPRPRPIHAPRP | -0.0866
RRIRNRPPRLPRPRPRPIHSPRP | -0.189
RRIRNRPPRLPRPRPRPIIFPRP | -1.03
RRIRNRPPRLPRPRPRPIIQPRP | -0.481
RRIRNRPPRLPRPRPRPIKAPRP | -0.0167
RRIRNRPPRLPRPRPRPIKIPRP | -0.357

Sequence | shrunken log2 fold change
RRIRNRPPRLPRPRPRPIKLPRP | -0.0869
RRIRNRPPRLPRPRPRPIMVPRP | 0.00732
RRIRNRPPRLPRPRPRPIPDPRP | -0.0956
RRIRNRPPRLPRPRPRPIQSPRP | -0.216
RRIRNRPPRLPRPRPRPIQWPRP | 0.0441
RRIRNRPPRLPRPRPRPIRIPRP | 0.0229
RRIRNRPPRLPRPRPRPIRMPRP | -0.00776
RRIRNRPPRLPRPRPRPISEPRP | 0.00895
RRIRNRPPRLPRPRPRPITLPRP | -0.229
RRIRNRPPRLPRPRPRPITNPRP | -0.279
RRIRNRPPRLPRPRPRPIYLPRP | -0.376
RRIRNRPPRLPRPRPRPKCEPRP | -0.0549
RRIRNRPPRLPRPRPRPKEPPRP | 0.0169
RRIRNRPPRLPRPRPRPKERPRP | 0.0296
RRIRNRPPRLPRPRPRPKFWPRP | 0.177
RRIRNRPPRLPRPRPRPKFYPRP | -0.83
RRIRNRPPRLPRPRPRPKGQPRP | 0.0938
RRIRNRPPRLPRPRPRPKHGPRP | 0.0401
RRIRNRPPRLPRPRPRPKHKPRP | -0.0428
RRIRNRPPRLPRPRPRPKMNPRP | -0.381
RRIRNRPPRLPRPRPRPKNFPRP | 0.0662
RRIRNRPPRLPRPRPRPKNTPRP | -0.462
RRIRNRPPRLPRPRPRPKPHPRP | 0.174
RRIRNRPPRLPRPRPRPKSPPRP | 0.205
RRIRNRPPRLPRPRPRPKSTPRP | -0.271

Sequence | shrunken log2 fold change
RRIRNRPPRLPRPRPRPKWPPRP | 0.208
RRIRNRPPRLPRPRPRPKYTPRP | -0.63
RRIRNRPPRLPRPRPRPLCLPRP | -0.311
RRIRNRPPRLPRPRPRPLDHPRP | -0.0699
RRIRNRPPRLPRPRPRPLDIPRP | 0.0164
RRIRNRPPRLPRPRPRPLGHPRP | -0.262
RRIRNRPPRLPRPRPRPLGSPRP | -0.0602
RRIRNRPPRLPRPRPRPLHEPRP | 0.0748
RRIRNRPPRLPRPRPRPLHQPRP | -0.112
RRIRNRPPRLPRPRPRPLINPRP | -0.533
RRIRNRPPRLPRPRPRPLKHPRP | -0.239
RRIRNRPPRLPRPRPRPLPAPRP | 1.07
RRIRNRPPRLPRPRPRPLQEPRP | -0.0474
RRIRNRPPRLPRPRPRPLQQPRP | 0.0184
RRIRNRPPRLPRPRPRPLRKPRP | -0.099
RRIRNRPPRLPRPRPRPLSAPRP | -0.097
RRIRNRPPRLPRPRPRPLVMPRP | -0.126
RRIRNRPPRLPRPRPRPLWDPRP | -0.00945
RRIRNRPPRLPRPRPRPLWPPRP | 0.14
RRIRNRPPRLPRPRPRPLYWPRP | -0.437
RRIRNRPPRLPRPRPRPMCPPRP | -0.0135
RRIRNRPPRLPRPRPRPMCVPRP | -0.166
RRIRNRPPRLPRPRPRPMDFPRP | -0.12
RRIRNRPPRLPRPRPRPMENPRP | -0.0164
RRIRNRPPRLPRPRPRPMEVPRP | -0.052

Sequence | shrunken log2 fold change
RRIRNRPPRLPRPRPRPMGKPRP | -0.491
RRIRNRPPRLPRPRPRPMHLPRP | -0.179
RRIRNRPPRLPRPRPRPMIEPRP | 0.00437
RRIRNRPPRLPRPRPRPMKWPRP | 0.0456
RRIRNRPPRLPRPRPRPMLLPRP | -0.0366
RRIRNRPPRLPRPRPRPMMGPRP | 0.0355
RRIRNRPPRLPRPRPRPMMHPRP | -0.25
RRIRNRPPRLPRPRPRPMMNPRP | 0.274
RRIRNRPPRLPRPRPRPMPHPRP | -0.626
RRIRNRPPRLPRPRPRPMRAPRP | 0.517
RRIRNRPPRLPRPRPRPMRTPRP | 0.312
RRIRNRPPRLPRPRPRPMSSPRP | -0.123
RRIRNRPPRLPRPRPRPMTRPRP | -0.386
RRIRNRPPRLPRPRPRPMWAPRP | -0.0203
RRIRNRPPRLPRPRPRPMYQPRP | -0.201
RRIRNRPPRLPRPRPRPNADPRP | -0.194
RRIRNRPPRLPRPRPRPNCIPRP | -0.679
RRIRNRPPRLPRPRPRPNCSPRP | 7.72e-05
RRIRNRPPRLPRPRPRPNDNPRP | -0.734
RRIRNRPPRLPRPRPRPNESPRP | -0.121
RRIRNRPPRLPRPRPRPNEYPRP | -0.312
RRIRNRPPRLPRPRPRPNGSPRP | -0.0999
RRIRNRPPRLPRPRPRPNIIPRP | -0.784
RRIRNRPPRLPRPRPRPNKWPRP | -0.155
RRIRNRPPRLPRPRPRPNLMPRP | -0.733

Sequence | shrunken log2 fold change
RRIRNRPPRLPRPRPRPNMPPRP | -0.407
RRIRNRPPRLPRPRPRPNNAPRP | 0.0167
RRIRNRPPRLPRPRPRPNNRPRP | 0.113
RRIRNRPPRLPRPRPRPNNWPRP | -0.0773
RRIRNRPPRLPRPRPRPNPVPRP | -0.139
RRIRNRPPRLPRPRPRPNQGPRP | -0.338
RRIRNRPPRLPRPRPRPNRGPRP | 0.0523
RRIRNRPPRLPRPRPRPNSDPRP | -0.073
RRIRNRPPRLPRPRPRPNTEPRP | -0.206
RRIRNRPPRLPRPRPRPNVQPRP | -0.128
RRIRNRPPRLPRPRPRPNVTPRP | -0.361
RRIRNRPPRLPRPRPRPNYTPRP | -0.359
RRIRNRPPRLPRPRPRPPAPPRP | 0.78
RRIRNRPPRLPRPRPRPPATPRP | 0.615
RRIRNRPPRLPRPRPRPPCIPRP | -0.662
RRIRNRPPRLPRPRPRPPDFPRP | 0.272
RRIRNRPPRLPRPRPRPPEHPRP | 0.266
RRIRNRPPRLPRPRPRPPFNPRP | -0.299
RRIRNRPPRLPRPRPRPPFPPRP | 0.309
RRIRNRPPRLPRPRPRPPFQPRP | 0.0529
RRIRNRPPRLPRPRPRPPFYPRP | -0.403
RRIRNRPPRLPRPRPRPPGHPRP | 0.463
RRIRNRPPRLPRPRPRPPHCPRP | 0.0234
RRIRNRPPRLPRPRPRPPLWPRP | 0.539
RRIRNRPPRLPRPRPRPPLYPRP | -0.101

Sequence | shrunken log2 fold change
RRIRNRPPRLPRPRPRPPNEPRP | 0.217
RRIRNRPPRLPRPRPRPPNKPRP | 0.125
RRIRNRPPRLPRPRPRPPNMPRP | -0.101
RRIRNRPPRLPRPRPRPPNPPRP | 0.411
RRIRNRPPRLPRPRPRPPPRPRP | 1.47
RRIRNRPPRLPRPRPRPPRDPRP | 0.499
RRIRNRPPRLPRPRPRPPRVPRP | 0.379
RRIRNRPPRLPRPRPRPPVGPRP | 0.444
RRIRNRPPRLPRPRPRPPWPPRP | 0.387
RRIRNRPPRLPRPRPRPPYEPRP | -0.18
RRIRNRPPRLPRPRPRPQCGPRP | -0.241
RRIRNRPPRLPRPRPRPQDFPRP | -0.0385
RRIRNRPPRLPRPRPRPQDMPRP | 0.0124
RRIRNRPPRLPRPRPRPQDVPRP | -0.0757
RRIRNRPPRLPRPRPRPQDWPRP | -0.133
RRIRNRPPRLPRPRPRPQGQPRP | 0.225
RRIRNRPPRLPRPRPRPQHQPRP | -0.135
RRIRNRPPRLPRPRPRPQIEPRP | -0.251
RRIRNRPPRLPRPRPRPQKYPRP | 0.125
RRIRNRPPRLPRPRPRPQMTPRP | -0.661
RRIRNRPPRLPRPRPRPQNAPRP | -0.011
RRIRNRPPRLPRPRPRPQNFPRP | 0.0364
RRIRNRPPRLPRPRPRPQPGPRP | 0.285
RRIRNRPPRLPRPRPRPQPLPRP | -0.102
RRIRNRPPRLPRPRPRPQPWPRP | -0.00313
